Test results taken from the DeepSol protein solubility set.

assay: soluble on expression in E. coli; label from the status in PepcDB or PDB records

| Sequence | soluble on expression in E. coli |
| --- | --- |
| MAHHHHHHMEYQGSPQQEEGDAALAKRLHEELNRSEASGHQEPSDQTGGRRQVECPMCSSVSVVVGAADGVQQVCERCKATTHGGFASGEDNENYSMQKLLLCNICQSYNRVPKGTFDAILCGACGNQLKAGGSVTENLSPEDTRVRTQEIRVRCPKCSSINTVEANTDALSVRFECGSCRYANEVFF | soluble |
| MAHHHHHHMFNNDPLQKYDKELFDLLEKEKNRQIETINLIASENLTNTAVRECLGDRISNKYSEGYPHKRYYGGNDYVDKIEELCYKRALEAFNVSEEEWGVNVQPLSGSAANVQALYALVGVKGKIMGMHLCSGGHLTHGFFDEKKKVSITSDLFESKLYKCNSEGYVDMESVRNLALSFQPKVIICGYTSYPRDIDYKGFREICDEVNAYLFADISHISSFVACNLLNNPFTYADVVTTTTHKILRGPRSALIFFNKKRNPGIDQKINSSVFPSFQGGPHNNKIAAVACQLKEVNTPFFKEYTKQVLLNSKALAECLLKRNLDLVTNGTDNHLIVVDLRKYNITGSKLQETCNAINIALNKNTIPSDVDCVSPSGIRIGTPALTTRGCKEKDMEFIADMLLKAILLTDELQQKYGKKLVDFKKGLVNNPKIDELKKEVVQWAKNLPFA | soluble |
| MAHHHHHHMFTLLCCADLAGNKVNLEIALDTFPATLRGLESDIARIFNREVEKSGAVEHNANVAEPFQVMSVFVYDDVLLRWTKLESLTQLHEYDQLYVFQPQTQWHVDVQKELPPPRPPARSRASSITGASGTLASLQVNGCASSPWPRSGISTRISAAGDIDTSHSPVPSRSPARAQLEEHRREEERLAHRLSTLRRVREHLEREAQREEEEERRRRSLETYRLLKCKEEEIWSQRDALARAEEEFRQFLAEKQRLMGQSPSP | not soluble |
| MAHHHHHHMGCKNSKAREPPADTVTAAQANIATNKNSSTAPTLSPAQHHAKQTGETKRNNAASPASRGNNGEASENESRSEQPKKALGPGGNDVKQAASNSPSKQELDDEGNPLLLPNGDWVRTEGTPFYYSVEENLYFHPPSCQFYDPTNGMWYDPEKDEWYYDDENGAQE | soluble |
| MAHHHHHHMGCKSSAEAKPSETRSPSARLSRNSVTTPPDRMDTAHRLHPAAREEVDLDPENVAGAEHISPSVVTARSSSRVAAVTLHGICGYTHNGVPAYSNGTSNTWPWMKNFCEGIFMGYQWQCVEFARRWLWVTHRLLLPKRSCAYCFSSCTYAYRLKKDSSLISQRARAAMHKAAAETGAGSPSSSKEVNAATEARHLGPCTSRDTWEKVPAKFVKQGSLVPPVADSLIVYPISWGSPWGHIGVITAVDLDRHRVYVADQNRYFHDWNG | soluble |
| MAHHHHHHMGGRTAFEDVCANEAKAWSICLETNLGGKDVRKKCGEQQQTFDTCVSAWRTKVGNAVQVKGENEGDPPFQCASMACHIGECLRKYNYDFDRCEPHTQFFKYCVKSFYGQDYIS | not soluble |
| MAHHHHHHMGKGAVHPNGSNFCRFLKYNIVDKMRTLVNTNLYDTPRWLEWSERAPPMEIYNISLKTKYNNNKYMDLVKFLLKKYPHLRFQDCYVEGNNNIKGYDYFRNDHIITQMATHQLYYMNRGYSKKEALEKTEKLFYDRRMDIEKQQKINMCLAIDEKVKPIYTNGYQYLYEKMADNEKAHLSIILKKLRNMKEKLQKKKKGANENEDKKNGVLT | not soluble |
| MAHHHHHHMGSCCAKSDTSVDIDDSGRGVERDTEDDNNVYILQYQSRGEVLKMLELEPTPHEASVMTQSPSLPTDGPAAEECAEAELSDPLSCSSTTIVTVRSERRAADRFSANSLTWTLPEVSATTVSTRFDHARTTSFMGSDDDFSSVEWSANSRKDRRLMLLRDRDRAAQRDMVMNEMDQRRFIAEHANRAHRAILVTYIRNRLEIERRVSYEEFLVERNAFLLHELEAREPLVRRTVELQAHSELLNKMQQQRLLRNRGK | soluble |
| MAHHHHHHMGSLSSSSSSSAATGAGAAASQTDAQEVTPVDSLWSPHDVCEAAVDYVLRHVNTVQYMIQSIEEITGKPFLRDRIKCLPAVPRDEASRNPTMGLTPDRVFAGYMWRSARSDCQAKDVVLLEDHIARLFNTKHATAFLKKDKGVNERAASPPTTSDAAATAASSLSTTATQSQLQRLLAGSQLPVLEQVERNIRHELVHAFDDARGAIESSDCVHQACSEIRAARLSGDCFVGQEMRKGRFNFFEGGQKCVRRRAVMAVDRNPVCRGFSERAVDTVFQKCYSDYEPFAAPIYALGSYGDSQFANGTLKL | not soluble |
| MAHHHHHHMGTLEAQTQGPGSMALNSAVILAGCGHMDGSEIREAVLVMLELDRHNVNFKCFAPNKNQKQVVDHKKKESVGEVRNILVESARIARGSVYDIEQIRVEEFDMLVIPGGYGVAKNFSNLFDEDKENDYILPEFKNAVREFYNAKKPIGAVCISPAVVVALLKDIAKVKVTIGEDSNGLIDKMGGVHVDCPTIKSVKDDVNRIFSCSAYMRNDSLYNVYLGIQDMISSMVNYLKSK | soluble |
| MAHHHHHHMGTLEAQTQGPGSMKQAYDNNNIFAKLIRNEIPSVRVYEDDDVIAFMDIMPQAPGHTLVIPKKGSRNLLDADTETLFPVIKAVQKIAKAVKKAFQADGITVMQFNEAASQQTVYHLHFHIIPRMEGIELTPHNNIITPTEILEENAKKIRAAL | soluble |
| MAHHHHHHMGTLEAQTQGPGSMREVLVPYAGVSPSVDSTAFIAGNARIIGDVCIGKNASIWYGTVLRGDVDKIEVGEGTNIQDNTVVHTDSMHGDTVIGKFVTIGHSCILHACTLGNNAFVGMGSIVMDRAVMEEGSMLAAGSLLTRGKIVKSGELWAGRPAKFLRMMTEEEILYLQKSAENYIALSRGYL | soluble |
| MAHHHHHHMGTLEAQTQGPGSMSAPLAEVDPDIAELLAKELGRQRDTLEMIASENFVPRAVLQAQGSVLTNKYAEGLPGRRYYGGCEHVDVVENLARDRAKALFGAEFANVQPHSGAQANAAVLHALMSPGERLLGLDLANGGHLTHGMRLNFSGKLYENGFYGVDPATHLIDMDAVRATALEFRPKVIIAGWSAYPRVLDFAAFRSIADEVGAKLLVDMAHFAGLVAAGLHPSPVPHADVVSTTVHKTLGGGRSGLIVGKQQYAKAINSAVFPGQQGGPLMHVIAGKAVALKIAATPEFADRQRRTLSGARIIADRLMAPDVAKAGVSVVSGGTDVHLVLVDLRDSPLDGQAAEDLLHEVGITVNRNAVPNDPRPPMVTSGLRIGTPALATRGFGDTEFTEVADIIATALATGSSVDVSALKDRATRLARAFPLYDGLEEWSLVGR | soluble |
| MAHHHHHHMGTLEAQTQGPGSMSFFLTTPAAIDLGVNIDHVATLRNARGTAYPDPVRAALAAEDAGADAITLHLREDRRHIVDADVRTLRPRVKTRMNLECAVTPEMLDIACEIRPHDACLVPEKRSELTTEGGLDVVGHFDAVRAACKQLADAGVRVSLFIDPDEAQIRAAHETGAPVIELHTGRYADAHDAAEQQREFERIATGVDAGIALGLKVNAGHGLHYTNVQAIAALPGIAELNIGHAIVAHAVFVGWDNAVREMKAIMVAARVAALHGGR | soluble |
| MAHHHHHHMGVGLSTVRHAGTAILVPTVSAASTAVLPLSSEERVAALPGTTTPPAAAAAPAPPTAEHTSNPRQRLTDTPAAHAAVSLPHAAPKPHRRFLPYPEEASALATPPPAAVLTAAPVVVEAAVKRHRKGSRVTKPLHPAQASLFTWAEGGQRNATGDAIIAGDHLRRRCCPDAGVVANRSMDCDEDATLVVRSPDEGRRSGTSLQSEGGLYGEKGQRQFAASGQWSPSPASPEAEEVAATVCASVNATAVENAPSGPAAPLLSSAFTAYRPVARSASPGPALGQYEGLPLTSVQQVLESKHKVYRICLTGGPCAGKSTMLSAIQAKIPQRTGFRVMCVPEAATLLVTGGMQWDGDLTVPQQLGLLRTQLALEDQFYALAVASHVPTVIVSDRGTMDGRAFCTDAQFQEILRGVGSTIDVLRDRYDAVIHMVTAADGAEEFYNLDNPARYEDLDGARASDLRLQRMYVGHPMFRLLDNSTTFEDKIERGLQVVSQVVHKEQCAPALPTYYLVRRCPAELPVASATYTTYTTVLGNSQISDIRLLVKREMADGSTMHFFKSVRDAPSTVPSSRAPPRATSHASSGASFRSSVNAPTVSTASPTQQRTRAPNASAAASTRACASTATAPALRW | not soluble |
| MAHHHHHHMIPKESMNVDQSRYETQEGTIVENKLTPFLELTSGEIPMWVKQKYLLSPIDTSKYSDDFYKLGPDDFGKLSGEQVKPDLIKSKLPSSVLHKIWNLADITKDGYLDLFEYSLARHFIEMKTEGFDLPTKVPKDIINSHEY | soluble |
| MAHHHHHHMKDVDTARVLSELVNALQRVTAQPAWNTVQEPKAITFRLEDLFSTPNSVLASAATEGDSPEHGGNASEMNSPDMAAASFVNSGVGDGLGETATPLAPLREMSDHFSSNKKYAEEGLQDVFTMLQRLIDGTYSTAGCAALACMGQEIDKMITLMRPVALIDMRAAVYMNSLCSNIAAAKESRMQLNAPLVWDFVTNTVQTYITDHPVLYTALVAISNLSYLKDLKLTREDCGVLSRLIYPVYTEVHIVEVWAAMICNLTAHHPETVQVFLELGVVEVLERLVLYFGEEGRTVIRCLQCLSNLSMGFITGHSPALAE | not soluble |
| MAHHHHHHMKENVLINENIKAHEEKGNLNDDKRDEHMISLRGLNIYYKDKLENLNTIKNIDNNKKFIKLVLEDVDLKPEEIMKHILHLLKEKTSLHTILEINKQKYKIKYKEIIPDDHILFTQNIQNITNCKYALLGILKVSKYTKKNTFNEKLLQSWQDVPMEF | not soluble |
| MAHHHHHHMKNIFKYKNRLTFFRKGFSTTNKPKVEIKKTILYDSHKKNNAIFKIQHGFYLPDEYKDITLITSNLHTRTNCSLFDYTYRPILKISGEDKINFIEKYVGSDIKGLWENECRISLLLNDKGGIIDDIMIILREKYLLLYLNIQCKEKVYKYLKDKLLENGKLQVQIEEFTSHSSICIQGSKSSDVLKELIDYNNESVETNLDNCSFMSSTLTKINKIDNCILNRYTCTGEDGFDILIPNKYVNDLYNLILKNELVKPGGLAVQNTLRLESGFCEYGKDINEDITPIESNYKWSLGQRRLKELNFNGAHIIMDQIKNGTKIKRVGILINTNIVPKENTKIYSHENAEQIIGYITSSVFSPVLQKPICMGYVKSEYAHINNLIKVDCLNKLEIAQITKLPFVPLSIYKL | not soluble |
| MAHHHHHHMKPKMRRESAQPCLTCMPAILNKSVCPIHKIYSDNTLLLFMVIDCYNKMCSKKISTRNANDYKKLWNDNKLLICYSHGVLFHMHTRTSKTCFPQNYFSSNNDNCECGVHQVRFKTLKAQVHIIIPAILTGTTIV | not soluble |
| MAHHHHHHMKPYVWPTSDEAPPPSGRRTFPRQFQVNHGTLNLFSPAVPESQQCNTRAAAGSFSITGQRGILHQRNHNKESTATREFPVNGLRRVSAPQRSETPHGIRHIRDAAGAQQHVQVVNITDAYKDPMQMGPRRTGVKCLPQKSESDDVSVALSFAGSRQQLSARVLAAPVGKPSRPSLYPIDYSDQERFAQAVRDHAQKRTRGLAEFYVQLVRDTVGSVTSSTPKPAIVPWSLDQEPTRRVLTLGRCRDQLVALTAMPISLSDLALLLWGAGNGEVANSDSLTSDCDKDASLPLNCRPVPFCDFAAAFGQNSSDVRLARMKV | not soluble |
| MAHHHHHHMKQIDQLIIEEADENTIIPYYLSNLLTNASNPVVFMDVNLGNHFLGKFKFELFQNIVPKTSENFRQFCTGEYKVNNLPVGYKNTTFHRVIKEFMIQGGDFVNYNGSGSLSIYGEIFEDENFDVKHDQEGLLSMANSGPNTNGCQFFITTKKCEWLDGKNVVFGRIIDSDSLILLKKIENVSVTPYIYKPKIPINIVECGEL | not soluble |
